Target: Echovirus 3 (E3) mature full (F-) particle, genotype HNWY-01 strain (Echovirus 3 (genotype HNWY-01 strain))
Assay: SPR

B1: monoclonal antibody 6D10 IgG (antibody, V domains shown)
VH: EVQLQQSGPELARPWASVKISCQAFYTFSNYGMQWVKQSPGQGLEWIGPFYPGNADTSYNQKFKGKATLTADKSSSTAYMQFSSLTSEDSAVYYCARVVATTDFDYWGQGTTVTVSS
VL: not shown
- koff: 5.1e-05 s⁻¹

— publication PMC9692665 (2022)
